This series concerns the molecule itself. In words: SEC. (In general: SEC sorts molecules by how far they enter the pores of the column.)

Usually stoichiometry N stands for a count of units in the complex or per binding partner.

B1: KvLm-PM, pore module of KvLm (S4-S5 linker-S5-P-S6-C-terminus) (domain or fragment, Listeria monocytogenes, UniProt Q8Y5K1 98-247, looked up)
chain: RYIVPIYSFFRSNGLNRFLMIFVLLVIIIPVPMVFIEPEINNYPDALWWAIVTATTVGYGDIVPVTPIGRILASIMMLFGIAFIGMITSTITNFFRAKKPTNSSTQRANKITQLISETPDLTKEEIAVVEQFLTLRKKELADENTKSDSE
For B1, the “stoichiometry N” value stood at 4.

These data come from article PMC2585861 (The Journal of General Physiology, 2008).
